Drawing on US8313920B2, “High-throughput assay for evaluating dipeptidyl peptidase I activity” (Janssen Research & Development, LLC, priority 2008, dated 2012), this text covers Km for one protein.

Substrate in the data set: CC[C@H](C)[C@H](NC(=O)[C@H](CCC(=O)O)NC(=O)CN)C(=O)N[C@H](C(=O)NCC(=O)NCC(=O)N[C@H](C(=O)N[C@@H](CCC(=O)O)C(=O)N[C@@H](CS)C(=O)N[C@@H](CCCCN)C(=O)N1CCC[C@H]1C(=O)N[C@@H](Cc1c[nH]cn1)C(=O)N[C@@H](CO)C(=O)N[C@@H](CCCNC(=N)N)C(=O)N1CCC[C@H]1C(=O)N[C@@H](Cc1ccc(O)cc1)C(=O)N[C@@H](CCSC)C(=O)N[C@@H](C)C(=O)N[C@@H](Cc1ccc(O)cc1)C(=O)N[C@@H](CC(C)C)C(=O)O)[C@@H](C)O)[C@@H](C)CC
Kind of data set: Initial velocity analysis of DPPI with the 20-mer substrate, mass spectrometry. In kind it is biochemical, human. The following applies: other: 20-mer as DPPI substrate, about 2 nM DPPI, pH 7.0, about 27° C. The method, then: FIG. 1. Initial velocity analysis for DPP1 kinetic constant in reaction with a 20-mer substrate (A) and a dipeptide substrate (B). (A) About 2 nM of DPPI was used in the reaction with the 20-mer substrate of […] (SEQ ID NO:1) and the reaction was monitored using a mass spectrometry system. (B) About 0.4 nM of DPP1 was used in the reaction with the dipeptide substrate of GR-α-methylcoumarin and the reaction was monitored using a rate-based format monitoring fluorescence at EM=460 nm and EX=380 nm. Initial rates are taken from kinetic data where less than 7% substrate turnover was achieved.
Once the rate of the substrate turnover under the initial velocity condition, the kinetic constants for DPPI and the peptide substrate are calculated using the following formula (I): Y=VMAX((X+Et+KM)−((((Et+X+KM)^2)−(4XEt))^0.5))/(2Et) wherein • Y is concentration of substrate turnover • X is substrate concentration • Et is DPPI concentration • KM is substrate concentration at ½ VMAX • VMAX is substrate turnover at substrate saturation
About 2 nM of DPPI was incubated with about 0.5, 1, 2, 4, 8, 16, 32, 64, 90, 128, 150 μM of the 20-mer substrate in the reaction buffer of 50 mM HEPES (pH 7.0), 100 mM NaCl, 0.005% Tween-20, and 2 mM of DTT or GSH. […]

B1: dipeptidyl peptidase I (DPPI) (Homo sapiens) (protein)
chain 1: not shown
chain 2: LPTSWDWRNVHGINFVSPVRNQASCGSCYSFASMGMLEARIRILTNNSQTPILSPQEVVSCSQYAQGCEGGFPYLIAGKYAQDFGLVEEACFPYTGTDSPCKMKEDCFRYYSSEYHYVGGFYGGCNEALMKLELVHHGPMAVAFEVYDDFLHYKKGIYHHTGLR
chain 3: not shown
notes: made in house; host or cells: Hi5 insect cells (baculovirus)
In general, Km refers to the substrate concentration at which the rate is half of its maximum. As to B1, the Michaelis constant (Km) was found to be 62 µM.
